This is an account of results in paper PMC12285911 (2025).

What is called Kd is the constant that tells how readily two partners part at equilibrium. High values mean weaker binding, low ones tighter binding.

The target in the experiment is T1, ^FAMFAT10 (GG–FAT10 N-terminally labeled with fluorescein amidite by sortase) (human, 5-FAM on the N terminus (5-FAM conjugated to the N terminus of the peptide …, attached by sortase)).
T1 chain: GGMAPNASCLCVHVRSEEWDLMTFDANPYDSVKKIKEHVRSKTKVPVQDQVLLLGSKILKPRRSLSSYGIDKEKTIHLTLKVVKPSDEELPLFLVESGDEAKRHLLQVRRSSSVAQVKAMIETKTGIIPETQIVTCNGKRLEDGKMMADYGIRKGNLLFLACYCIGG
The experiment in a line: FP.

B1: NUB1^Δ1–175 (domain or fragment)
chain: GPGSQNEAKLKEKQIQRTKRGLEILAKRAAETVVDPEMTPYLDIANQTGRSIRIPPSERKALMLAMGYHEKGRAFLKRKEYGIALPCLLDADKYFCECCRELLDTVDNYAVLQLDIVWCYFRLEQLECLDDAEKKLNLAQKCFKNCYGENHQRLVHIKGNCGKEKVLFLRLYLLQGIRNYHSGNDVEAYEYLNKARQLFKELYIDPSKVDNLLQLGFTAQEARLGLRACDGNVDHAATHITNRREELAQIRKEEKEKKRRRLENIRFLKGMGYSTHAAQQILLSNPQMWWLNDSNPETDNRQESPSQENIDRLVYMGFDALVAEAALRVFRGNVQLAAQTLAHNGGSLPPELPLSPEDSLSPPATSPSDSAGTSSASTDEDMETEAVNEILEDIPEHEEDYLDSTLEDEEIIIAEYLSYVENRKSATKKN
In the case of B1, binding was characterised by a dissociation constant (Kd) of 152 nM. In other words, the sub-micromolar range.
